Measurements as given in the RNAGym collection of RNA variant scans (doi:10.7554/elife.80360).

B1: HDV Ribozyme (parent)
chain: GGCCGGCAUGGUCCCAGCCUCCUCGCUGGCGCCGGCUGGGCAACAUUCCGAGGGGACCGUCCCCUCGGUAAUGGCGAAUGGGACCCA

Variants of: B1
Assay: self-cleavage, relative activity (ratio to wild type); higher = more cleavage; co-transcriptional

Compared with GGCCGGCAUGGUCCCAGCCUCCUCGCUGGCGCAGGCUGGGCAACAUUCCGAGGGGAACGUCCCCUCGGUAAUGGCGAAUGGGACCCA [C33A C57A], GGCCGGCAUGGUCCCAGCCUCCUCGCUGGCGCAGGCUGGGCAACAUUCGGAGGGGACCGUCCCCUCGGUAAUGGCGAAUGGGACCCA [C33A C49G] is lower in self-cleavage: 0.447 for the first, 0.166 for the second.

Going from GGCCGGCAUGGUCCCAGCCUCCUCGCUGGCGCAGGCUGGGCAACAUUCCGAGGGGACCGUACCCUCGGUAAUGGCGAAUGGGACCCA [C33A C61A] to GGCCGGCAUGGUCCCAGCCUCCUCGCUGGCGUCGGCUGGGCAACAUUCCGAGGGGACCGGCCCCUCGGUAAUGGCGAAUGGGACCCA [C32U U60G], the self-cleavage rises from 0.281 to 1.02.

First: GGCCGGCAUGGUCCCAGCCUCCUCGCUGGCGCAGGAUGGGCAACAUUCCGAGGGGACCGUCCCCUCGGUAAUGGCGAAUGGGACCCA [C33A C36A]
Second: GGCCGGCAUGGUCCCAGCCUCCUCGCUGGCGCAGGCUGGGCAAGAUUCCGAGGGGACCGUCCCCUCGGUAAUGGCGAAUGGGACCCA [C33A C44G]
The self-cleavage of the first is higher: 0.213 for the first, 0.0475 for the second.

Compared with GGCCGGCAUGGUCCCAGCCUCCUCGCUGGCGCAGGCUGGGCAAAAUUCCGAGGGGACCGUCCCCUCGGUAAUGGCGAAUGGGACCCA [C33A C44A], GGCCGGCAUGGUCCCAGCCUCCUCGCUGGCGCAGGCUGGGCAACAUUUCGAGGGGACCGUCCCCUCGGUAAUGGCGAAUGGGACCCA [C33A C48U] is higher in self-cleavage: 0 for the first, 0.163 for the second.

First: GGCCGGCAUGGUCCCAGCCUCCUCGCUGGCGCAGGCUGGGCAACAUUGCGAGGGGACCGUCCCCUCGGUAAUGGCGAAUGGGACCCA [C33A C48G]
Second: GGCCGGCAUGGUCCCAGCCUCCUCGCUGGCGCAGGCUGGGCAACAUUCCGAGGGGACCGUCCACUCGGUAAUGGCGAAUGGGACCCA [C33A C63A]
The self-cleavage of the first is lower: 0.125 for the first, 0.196 for the second.

Compared with GGCCGGCAUGGUCCCAGCCUCCUCGCUGGCGUCGGCUGGGCAACAUUCCGAGGGGACCGUCCCCUCGGGAAUGGCGAAUGGGACCCA [C32U U69G], GGCCGGCAUGGUCCCAGCCUCCUCGCUGGCGCAGGCUGGGCACCAUUCCGAGGGGACCGUCCCCUCGGUAAUGGCGAAUGGGACCCA [C33A A43C] is lower in self-cleavage: 0.852 for the first, 0.0852 for the second.

First: GGCCGGCAUGGUCCCAGCCUCCUCGCUGGCGCAGGCUGGGCAACAUUCCGAGGGGACCGUCCCCUCGGUAAUGGCGAAUGGGCCCCA [C33A A83C]
Second: GGCCGGCAUGGUCCCAGCCUCCUCGCUGGCGCAGGCUGGGCAACAUUCCGAGGGGACCGUCCCCUCGGUAAUGGCGAAUGGGACCCG [C33A A87G]
The self-cleavage of the first is lower: 0.0449 for the first, 0.14 for the second.

Going from GGCCGGCAUGGUCCCAGCCUCCUCGCUGGCGCAGGCUGGGCAACAUUCCGAGGGGACCGUCCCCUCGGUAAUGGCGAAUGGGACCCC [C33A A87C] to GGCCGGCAUGGUCCCAGCCUCCUCGCUGGCGCAGGCUGGGCAACAUUCCGAGGGGACCGUCCCCUCGGUAAUGGCGAUUGGGACCCA [C33A A78U], the self-cleavage falls from 0.248 to 0.108.

First: GGCCGGCAUGGUCCCAGCCUCCUCGCUGGCGUCGGCUGGGCAACAUGCCGAGGGGACCGUCCCCUCGGUAAUGGCGAAUGGGACCCA [C32U U47G]
Second: GGCCGGCAUGGUCCCAGCCUCCUCGCUGGCGCAGGCUGGGGAACAUUCCGAGGGGACCGUCCCCUCGGUAAUGGCGAAUGGGACCCA [C33A C41G]
The self-cleavage of the first is higher: 1.03 for the first, 0.104 for the second.

First: GGCCGGCAUGGUCCCAGCCUCCUCGCUGGCGCAGGCUGGGAAACAUUCCGAGGGGACCGUCCCCUCGGUAAUGGCGAAUGGGACCCA [C33A C41A]
Second: GGCCGGCAUGGUCCCAGCCUCCUCGCUGGCGUCGGCUGGGCAACAUUCCGAGGGGACCGUCCCCUCGGUAACGGCGAAUGGGACCCA [C32U U72C]
The self-cleavage of the first is lower: 0.0845 for the first, 0.532 for the second.

Compared with GGCCGGCAUGGUCCCAGCCUCCUCGCUGGCGCAGGCUGGGCAACAUUCCGAGGGGACCGUCCCCUCGGUGAUGGCGAAUGGGACCCA [C33A A70G], GGCCGGCAUGGUCCCAGCCUCCUCGCUGGCGCAGGCUGGGCAACAUUCCGAGGGGACCGUCCCCUCGGUUAUGGCGAAUGGGACCCA [C33A A70U] is higher in self-cleavage: 0.198 for the first, 0.458 for the second.

Going from GGCCGGCAUGGUCCCAGCCUCCUCGCUGGCGCAGGCUGGGCAACAUUCCGAGGGGACCGUCCCCUCGGUCAUGGCGAAUGGGACCCA [C33A A70C] to GGCCGGCAUGGUCCCAGCCUCCUCGCUGGCGCAGGCUGGGCAACAUUCCGAGGGGACAGUCCCCUCGGUAAUGGCGAAUGGGACCCA [C33A C58A], the self-cleavage rises from 0.17 to 0.19.

Compared with GGCCGGCAUGGUCCCAGCCUCCUCGCUGGCGCAGGCUGGGCAACAUUCCGAGGGGACUGUCCCCUCGGUAAUGGCGAAUGGGACCCA [C33A C58U], GGCCGGCAUGGUCCCAGCCUCCUCGCUGGCGCAGGCUGGGCAACAUUCCGAGGGGACCGUCUCCUCGGUAAUGGCGAAUGGGACCCA [C33A C62U] is higher in self-cleavage: 0.142 for the first, 0.241 for the second.

Going from GGCCGGCAUGGUCCCAGCCUCCUCGCUGGCGCAGGCUGGGCAACAUUCCGAGGGGACCGUCGCCUCGGUAAUGGCGAAUGGGACCCA [C33A C62G] to GGCCGGCAUGGUCCCAGCCUCCUCGCUGGCGCAGGCUGGGCAACAUUCCGAGGGGACCGUCACCUCGGUAAUGGCGAAUGGGACCCA [C33A C62A], the self-cleavage rises from 0.208 to 0.344.

Compared with GGCCGGCAUGGUCCCAGCCUCCUCGCUGGCGCAGGCUGGGCAACAUUCCGCGGGGACCGUCCCCUCGGUAAUGGCGAAUGGGACCCA [C33A A51C], GGCCGGCAUGGUCCCAGCCUCCUCGCUGGCGCAGGCUGGGCAACAUUCCGAGGGGACCGUCCCCUCGGUACUGGCGAAUGGGACCCA [C33A A71C] is higher in self-cleavage: 0.147 for the first, 0.248 for the second.

First: GGCCGGCAUGGUCCCAGCCUCCUCGCUGGCGCAGGCUGGGCCACAUUCCGAGGGGACCGUCCCCUCGGUAAUGGCGAAUGGGACCCA [C33A A42C]
Second: GGCCGGCAUGGUCCCAGCCUCCUCGCUGGCGUCGGCUGGGCAACAUUCCGAGGGGACCGUCCCCUCGGUAAUGGCGAAAGGGACCCA [C32U U79A]
The self-cleavage of the first is lower: 0.146 for the first, 0.653 for the second.
